{
  "source": "patent US11560566B2",
  "about": "“Aptazyme-embedded guide RNAs for use with CRISPR-Cas9 in genome editing and transcriptional activation” (President and Fellows of Harvard College, priority 2017, dated 2023)",
  "molecules": {"B1": {"name": "5′ spacer-blocked sgRNA: sgRNA with 42-nucleotide linker and 6-nucleotide blocking sequence complementary to the spacer at the 5′ end (nucleic acid)", "guide": "GGUGCCCGUAGUAGUAGUAGCAACCACGUCGCGUCCGUAGUAGUAGUAGGGCACGGGCAGCUUGCCGGGUUUUAGAGCUAGAAAUAGCAAGUUAAAAUAAGGCUAGUCCGUUAUCAACUUGAAAAAGUGGCACCGAGUCGGUGCUUUUUUU"}, "B2": {"name": "canonical sgRNA: canonical Streptococcus pyogenes single guide RNA targeting GFP, positive control (nucleic acid)", "guide": "GGGCACGGGCAGCUUGCCGGGUUUUAGAGCUAGAAAUAGCAAGUUAAAAUAAGGCUAGUCCGUUAUCAACUUGAAAAAGUGGCACCGAGUCGGUGCUUUUUUU", "modifications": "chemistry not given here", "notes": "canonical Streptococcus pyogenes single guide RNA targeting GFP, positive control"}, "B3": {"name": "blocked crRNA: crRNA with 42-nucleotide linker and 10-nucleotide blocking sequence appended to the 3′ end (nucleic acid)", "guide": "GGGCACGGGCAGCUUGCCGGGUUUUAGAGCUAUGCUGUUUUGGAUGGCAACCACGUCGCGUCCUGUAGUAGUAUGAUAGCUCUAA", "modifications": "unmodified RNA"}, "B4": {"name": "blocked tracrRNA: tracrRNA with 42-nucleotide linker and 10-nucleotide blocking sequence appended to the 5′ end (nucleic acid)", "chain": "GGAUUUUAACUUUAGUAGUAGUAGGCAACCACGUCGCGUCCUAGUAGGCAUAGCAAGUUAAAAUAAGGCUAGUCCGUUAUCAACUUGAAAAAGUGGCACCGAGUCGGUGCUUUUUUU", "modifications": "unmodified RNA"}, "B5": {"name": "post-cleavage sgRNA: processed HHR-bsgRNA without the blocking sequence, 11 extra nucleotides at the 5′ end (nucleic acid)", "guide": "GCUGGAUUCCACGGGCACGGGCAGCUUGCCGGGUUUUAGAGCUAGAAAUAGCAAGUUAAAAUAAGGCUAGUCCGUUAUCAACUUGAAAAAGUGGCACCGAGUCGGUGCUUUUUUU", "modifications": "chemistry not given here"}, "B6": {"name": "guanine-agRNA: guanine-aptazyme-embedded guide RNA for GFP activation (nucleic acid)", "guide": "GCAAGCUGCCCGUGCCCGGUACAUCCAGCUGAUGAGUCCCAAAUAGGACGAAAUACUAUAAUCGCGUGGAUAUGGCACGCAAGUUUCUACCGGGCACCGUAAAUGUCCGACUAGUGUCCUGGAUUCCACGGGCACGGGCAGCUUGCCGGGUUUUAGAGCUAGAAAUAGCAAGUUAAAAUAAGGCUAGUCCGUUAUCAACUUGAAAAAGUGGCACCGAGUCGGUGCUUUUUUU"}, "B7": {"name": "(d) guanine-agRNA: non-splicing mutant of guanine-agRNA (nucleic acid)", "chain": "B6 guide with A52G"}, "B8": {"name": "guanine-agRNA with three bulges: guanine-agRNA with bulged blocker and a different spacer for RFP activation (nucleic acid)", "guide": "ACUGCGGGAUGGAGGAGACGGUACAUCCAGCUGAUGAGUCCCAAAUAGGACGAAAUACUAUAAUCGCGUGGAUAUGGCACGCAAGUUUCUACCGGGCACCGUAAAUGUCCGACUAGUGUCCUGGAUUCCACGUCCCCUCCACCCCACAGUGGUUUUAGAGCUAGAAAUAGCAAGUUAAAAUAAGGCUAGUCCGUUAUCAACUUGAAAAAGUGGCACCGAGUCGGUGCUUUUUUU"}},
  "key": {"[1]": {"test_system": "GFP gene (modified promoter) in HEK293T cells", "test": "Transcriptional activation of GFP reporter with dCas9-VPR in HEK293T cells", "type": "cell-based, human", "description": "In addition to genome editing, transcriptional regulation is another widely used application of CRISPR-Cas9^4. To further explore the utility of agRNAs, we sought to develop an agRNA that responds to a different small-molecule ligand and activates the expression of a guide RNA-specified target gene, rather than editing a target gene through DNA cleavage. A previously reported guanine-aptazyme^24 that contains a naturally occurring guanine aptamer^25 was incorporated into the guide RNA and the resulting guanine-agRNA was tested for its ability to activate transcription of a GFP gene in HEK293T cells (FIG. 3c). […] In the presence of an active guide RNA, dCas9-VPR initiates transcription of GFP, ultimately resulting in cell fluorescence.\n(§1) To each well in a 48-well plate, 200 ng of dCas9-VPR plasmid, 0.5 ng of guide RNA plasmid and 60 ng of reporter plasmid were transfected using 1.2 μL Lipofectamine 2000. […] Cells were harvested 20 h after transfection."}, "FANCF site": {"test_system": "FANCF site", "test": "Theophylline-dependent base editing (BE3), FANCF site", "type": "cell-based, human", "details": "ligand concentration 4 mM", "description": "Cells were harvested 3 days after transfection."}, "[2]": {"test_system": "target dsDNA (full GFP gene)", "test": "In vitro DNA cleavage assay (Cas9 + guide RNA)", "type": "biochemical", "details": "10 nM target DNA, 100 nM guide RNA, 100 nM Cas9, 37° C.; for target DNA cleavage followed by gel electrophoresis: 1 h for sgRNA variants, 5 h for crRNA and tracrRNA variants", "procedure": "The blocker-linked guide RNAs were prepared by in vitro transcription and incubated in vitro with Cas9 protein and a target dsDNA. Target DNA cleavage was followed by gel electrophoresis (FIG. 1b).\nSpCas9 protein was purified as previously described^1,35. Guide RNAs were transcribed using a T7 High Yield RNA Synthesis Kit (NEB) following the manufacturer's protocol, and purified with the E.Z.N.A. PF miRNA Isolation Kit (Omega Bio-tek, Inc.). The target dsDNA (full GFP gene) was amplified by polymerase chain reaction and purified using QlAquick PCR Purification Kit (QIAGEN). For the cleavage reaction, 10 nM of the target DNA was incubated with 100 nM of the guide RNA in the presence of 100 nM Cas9 protein in a Cas9 DNA cleavage buffer (150 mM KCl, 10 mM MgCl2, 0.5 mM DTT, 0.1 mM EDTA, 20 mM HEPES pH 7.5). In vitro editing reactions were incubated at 37° C. for 1 h for sgRNA and its variants and the reactions for crRNA and tracrRNA and their variants were incubated at 37° C. for 5 h before being stopped with 6×DNA loading buffer and analyzed by non-denaturing agarose gel electrophoresis."}, "[3]": {"test_system": "endogenous GFP locus in HEK293-GFP cells", "description": "To compare the activities of the guide RNAs with the blocking region either present or removed, a non-cleaving “dead” variant of HHR-bsgRNA (dHHR-bsgRNA) containing a single A to G point mutation in the catalytic loop of the hammerhead ribozyme was produced. To optimize the restoration of guide RNA activity by self-cleavage of the hammerhead ribozyme, the length of the blocking sequence was varied. Three sets of HHR-bsgRNAs and dHHR-bsgRNAs with blocking sequences of 10 to 17 nucleotides were constructed. The genome editing activities of these sgRNA variants in the presence of Cas9 in human embryonic kidney cells harboring genomic GFP genes (HEK293-GFP) were assayed by targeting the endogenous GFP locus (FIG. 2a).\nHEK293 cells with integrated GFP genes (GenTarget Inc.) were cultured in 48-well plates (40,000 cells seeded per well) in Dulbecco's Modified Eagle's Media plus GlutaMAX (DMEM, Life Technologies) with 10% FBS. Plasmids were transfected ˜20 h after plating when cells reached ˜70% confluence. To edit the GFP genes in HEK293 cells, 100 ng of Cas9 plasmid and 2 ng of guide RNA plasmid were transfected in each well using 1.2 μL Lipofectamine 2000 (Life Technologies) following the manufacturer's protocol. To distinguish transfected cells from non-transfected cells, 2 ng of an iRFP expression plasmid was co-transfected. A stock solution of 100 mM theophylline was made in 60 mM NaOH and was supplied to cells 6 h after plasmid transfection at designed concentrations. The cells were incubated for additional 7 days before analysis and media was changed at day 3, 5 and 6. Fresh theophylline was supplied immediately at the same concentration as in the initial condition each time the media was changed. GFP fluorescence was quantified by flow cytometry and the transfected live population was gated by iRFP signal."}, "[4]": {"test_system": "RFP reporter in HEK293T cells", "test": "Transcriptional activation of RFP reporter with dCas9-VPR in HEK293T cells", "type": "cell-based, human", "details": "different spacer sequence", "procedure": "To further generalize this strategy, we tested the guanine-agRNA with three bulges for RFP activation in HEK293T cells with a different spacer sequence that is unrelated to the spacer used to target GFP.\nas §1"}},
  "note": "Changes are numbered by the printed parent chain.",
  "data": [
    {"molecule": "Nc1nc2nc[nH]c2c(=O)[nH]1", "note": "[guanine, reference compound]", "values": [
      {"measurement": "effect of guanine on GFP fluorescence", "setting": "[1]; guanine in the medium from 0 to 200 μM, cells with (d) guanine-agRNA", "value": "slightly reduced GFP fluorescence"}
    ]},
    {"molecule": "Cn1c(=O)[nH]c(=O)c2[nH]cnc21", "note": "[3-methylxanthine]", "values": [
      {"measurement": "response of theophylline-agRNA-mediated base editing to ligand, fold less strongly than to theophylline", "setting": "FANCF site", "value": 2, "unit": "fold"}
    ]},
    {"molecule": "B1", "values": [
      {"measurement": "target DNA cleavage followed by gel electrophoresis", "setting": "[2]", "value": "no cleavage product could be detected"}
    ]},
    {"molecule": "B2", "values": [
      {"measurement": "cleavage efficiency", "setting": "[2]; 1 h", "value": "~100", "unit": "%"},
      {"measurement": "activity relative to that of the activated agRNA", "setting": "[3]; loss beyond the off-state, 62% vs 48%", "value": 1.3, "unit": "fold"},
      {"measurement": "loss beyond the off-state", "setting": "[3]; wild-type Cas9", "value": 62, "unit": "%"},
      {"measurement": "GFP loss", "setting": "[3]; wild-type Cas9, canonical guide, positive control", "value": 72, "unit": "%"}
    ]},
    {"molecule": "B3", "values": [
      {"measurement": "target DNA cleavage followed by gel electrophoresis", "setting": "[2]", "value": "partial cleavage of the target DNA"}
    ]},
    {"molecule": "B4", "values": [
      {"measurement": "target DNA cleavage followed by gel electrophoresis", "setting": "[2]", "value": "partial cleavage of the target DNA"}
    ]},
    {"molecule": "B5", "values": [
      {"measurement": "activity compared to the unmodified guide RNA", "setting": "[3]; HEK293-GFP cells, Cas9, sgRNA with 11 extra nucleotides at the 5′ end", "value": "maintained most of its activity"}
    ]},
    {"molecule": "B6", "values": [
      {"measurement": "off-state activity (GFP fluorescence)", "setting": "[1]; absence of guanine, compared to control cells lacking any guide RNA", "value": "elevated GFP fluorescence"},
      {"measurement": "activation of GFP fluorescence", "setting": "[1]; guanine added to media at 50 μM", "value": 5, "unit": "fold"}
    ]},
    {"molecule": "B7", "values": [
      {"measurement": "GFP activation by guanine", "setting": "[1]; guanine 50 μM (dHHR-bsgRNA) or different concentrations ((d) guanine-agRNA), dCas9-VPR", "value": "only a low level of GFP expression that could no longer be activated by guanine"}
    ]},
    {"molecule": "B8", "values": [
      {"measurement": "guanine-dependent RFP activation ratio", "setting": "[4]", "value": "~3", "unit": "fold"}
    ]}
  ]
}
